Data published in PMC4980550, “Structural Basis for Plexin Activation and Regulation” (Neuron, 2016).
“And” between values parts separate entries of the source, which are not always exact repeats. Equal entries are not always repeated.

What was measured:
[1] = target: PlxnA1_(1-10), full extracellular segment of mouse PlxnA1 (domains 1-10) (mouse) (UniProt P70206); test: AUC; sedimentation velocity, 40,000 rpm, absorbance at 280 nm, c(s) analysis; protein at 28.1 μM (4 mg/ml)
[2] = target: PlxnA2 extracellular-transmembrane segment fused to mTFP1 (donor) or mVenus (acceptor) (mouse); test: FRET or BRET; FRET-FLIM in live COS-7 cells co-expressing mTFP1- and mVenus-fused PlxnA2; before Sema6A stimulation
[3] = target: the molecule itself; test: crystal structure; crystals of full extracellular segments; intermolecular plexin-plexin interface in the crystal; 4 to 10 Å
[4] = target: T1, PlxnA2_(1-2), PlxnA2 sema-PSI1 domains (mouse, UniProt P70207 31-561); test: SPR; equilibrium experiments, Biacore T200, 25°C, 10 mM HEPES pH 7.5, 150 mM NaCl, 0.005% Tween 20; biotinylated PlxnA2_(4-5) (wild type or mutant) on streptavidin chip, PlxnA2_(1-2) as analyte; 1:1 Langmuir model; conditions: both partners purified
T1 construct: Plexin-A2, mouse, sema and PSI1 domains (domains 1-2)
T1 sequence: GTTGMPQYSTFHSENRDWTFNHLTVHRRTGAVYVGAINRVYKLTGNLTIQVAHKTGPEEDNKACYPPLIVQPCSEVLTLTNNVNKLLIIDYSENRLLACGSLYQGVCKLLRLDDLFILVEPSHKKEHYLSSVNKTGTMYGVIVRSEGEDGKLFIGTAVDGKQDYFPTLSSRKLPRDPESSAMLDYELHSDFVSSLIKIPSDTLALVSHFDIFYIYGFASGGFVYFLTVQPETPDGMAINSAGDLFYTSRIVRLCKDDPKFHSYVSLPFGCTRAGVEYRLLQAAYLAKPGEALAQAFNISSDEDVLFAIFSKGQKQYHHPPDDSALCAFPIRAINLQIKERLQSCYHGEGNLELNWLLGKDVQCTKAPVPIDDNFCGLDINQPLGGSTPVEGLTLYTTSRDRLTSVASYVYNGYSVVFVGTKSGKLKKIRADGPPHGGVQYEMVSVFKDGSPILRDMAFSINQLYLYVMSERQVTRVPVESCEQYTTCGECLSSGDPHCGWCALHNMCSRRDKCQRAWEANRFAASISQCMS

“PlxnA1_(1-10), full extracellular segment of mouse PlxnA1 (domains 1-10) (from UniProt P70206 28-1242) (domain or fragment)” was tested, and the stoichiometry N [1] was 2 and 3 and 4.

With “PlxnA2 extracellular-transmembrane segment fused to mTFP1 (donor) or mVenus (acceptor) (receptor)” the average fraction of interacting donor (fD) [2] was 0.11.

B1: PlxnA2_(1-10), full extracellular segment of mouse PlxnA2 (domain or fragment, UniProt P70207 35-1237, looked up)
chain: MPQYSTFHSENRDWTFNHLTVHRRTGAVYVGAINRVYKLTGNLTIQVAHKTGPEEDNKACYPPLIVQPCSEVLTLTNNVNKLLIIDYSENRLLACGSLYQGVCKLLRLDDLFILVEPSHKKEHYLSSVNKTGTMYGVIVRSEGEDGKLFIGTAVDGKQDYFPTLSSRKLPRDPESSAMLDYELHSDFVSSLIKIPSDTLALVSHFDIFYIYGFASGGFVYFLTVQPETPDGMAINSAGDLFYTSRIVRLCKDDPKFHSYVSLPFGCTRAGVEYRLLQAAYLAKPGEALAQAFNISSDEDVLFAIFSKGQKQYHHPPDDSALCAFPIRAINLQIKERLQSCYHGEGNLELNWLLGKDVQCTKAPVPIDDNFCGLDINQPLGGSTPVEGLTLYTTSRDRLTSVASYVYNGYSVVFVGTKSGKLKKIRADGPPHGGVQYEMVSVFKDGSPILRDMAFSINQLYLYVMSERQVTRVPVESCEQYTTCGECLSSGDPHCGWCALHNMCSRRDKCQRAWEANRFAASISQCMSLEVHPNSISVSDHSRLLSLVVNDAPNLSEGIACAFGNLTEVEGQVSGSQVICISPGPKDVPVIPLDQDWFGLELQLRSKETGKIFVSTEFKFYNCSAHQLCLSCVNSAFRCHWCKYRNLCTHDPTTCSFQEGRINVSEDCPQLVPTEEILIPVGEVKPITLKARNLPQPQSGQRGYECVLSIQGAVHRVPALRFNSSSVQCQNSSYQYDGMDISNLAVDFAVVWNGNFIIDNPQDLKVHLYKCAAQRESCGLCLKADHKFECGWCSGERRCTLHQHCPSTSSPWLDWSSHNVKCSNPQITEILTVSGPPEGGTRVTIHGVNLGLDFSEIAHHVQVAGVPCTPIPGEYIIAEQIVCEMGHAVIGTTSGPVRLCIGECKPEFMTKSHQQYTFVNPSVLSLSPIRGPESGGTMVTITGHYLGAGSSVAVYLGNQTCEFYGRSMNEIVCVSPPSSNGLGPVPVSVSVDRARVDSSLQFEYIDDPRVQRIEPEWSITSGHTPLTITGFNLDVIQEPRVRVKFNGKESVNVCTVVNTTTLTCLAPSLTSDYRPGLDTVERPDEFGFLFNNVQSLLIYNDTKFIYYPNPTFELLSPTGILDQKPGSPIILKGKNLCPPASGGAKLNYTVMIGETPCTVTVSETQLLCEPPNLTGQHKVMVHVGGMVFSPGSVSVISDSLLTLP
notes: Plexin-A2, mouse, full extracellular segment (domains 1-10); also called PlxnA2 full ectodomain
B1: binds [3].

B2: PlxnA4_(1-10), full extracellular segment of mouse PlxnA4 (domain or fragment, UniProt Q80UG2 24-1236, looked up)
chain: TLLPRQPPQLSQKPSFVTFRGEPAEGFNHLVVDERTGHIYLGAVNRIYKLSSDLKVLVTHQTGPDEDNPKCYPPRIVQTCNEPLASTNNVNKMLLIDYKENRLIACGSLYQGICKLLRLEDLFKLGEPFHKKEHYLSGVNESGSVFGVIVSYSNFDDKLFIATAVDGKPEYFPTISSRKLTKNSEADGMFAYVFHDEFVASMIKIPSDTFTVIPDFDIYYVYGFSSGNFVYFLTLQPEMVSPPGSTTKEQVYTSKLVRLCKEDTAFNSYVEVPIGCERNGVEYRLLQAAYLSKAGAVLGRTLGVRPDDDLLFTVFSKGQKRKMKSLDESALCIFILKQINDRIKDRLQSCYRGEGTLDLAWLKVKDIPCSSALLTIDDNFCGLDMNAPLGVSEMVRGIPVFTEDRDRMTSVIAYVYKNHSLAFVGTKSGKLKKIRVDGPKGNALQYETVQVVDSGPVLRDMAFSKDHEQLYIMSERQLTRVPVESCGQYRSCGECLGSGDPHCGWCVLHNTCTRKERCERSREPRRFASEMKQCVRLTVHPNNISVSQYNVLLVLETYNVPELSAGVNCTFEDLSEMDGLVIGNQIQCYSPAAKEVPRIITENGDHHVVQLQLKSKETGMTFASTSFVFYNCSVHNSCLSCVESPYRCHWCKYRHVCTHDPNTCSFQEGRVKLPEDCPQLLRVDKILVPVEVIKPITLKAKNLPQPQSGQRGYECILNIQGIEQRVPALRFNSSSVQCQNTSYSYEGMEINNLPVELTVVWNGHFNIDNPAQNKVYLYKCGAMRESCGLCLKADPDFECGWCQSPGQCTLRQHCPAHESRWLELSGANSKCTNPRITEIIPVTGPREGGTKVTIRGENLGLEFRDIASHVKVAGVECSPLVDGYIPAEQIVCEMGEAKPSQHAGFVEICVAVCRPEFMARSSQLYYFMTLTLADLKPNRGPMSGGTQVTITGTNLNAGSNVVVMFGSQPCLFHRRSPSYIICNTTSSEEVLDMKVTVQVDRARIRQDLVFQYVEDPTIVRIEPEWSIVSGNTPIAVWGTHLDLIQNPQIRAKHGGKEHINICEVLNATEMTCQAPALALGPDHQSDLTERPEEFGFILDNVQSLLILNKTNFTYYPNPVFEAFSPSGILELKPGTPIILKGKNLIPPVAGGNVKLNYTVLVGEKPCTVTVSDVQLLCESPNLIGRHKVMARVGGMEYSPGMVYIAPDSPLSLP
notes: Plexin-A4, mouse, full extracellular segment (domains 1-10); also called PlxnA4 full ectodomain
B2: binds [3].

B3: PlxnA2_(4-5), PlxnA2 PSI2-IPT2 domains (domain or fragment, mouse)
chain: NCSAHQLCLSCVNSAFRCHWCKYRNLCTHDPTTCSFQEGRINVSEDCPQLVPTEEILIPVGEVKPITLKARNLPQPQSGQRGYECVLSIQGAVHRVPALRFNSSSVQCQNSSYQYDGMDISNLAVDFAVVWNGNFIIDNPQDLKVHLYK
modifications: enzymatically biotinylated with BirA via an engineered C-terminal tag
notes: Plexin-A2, mouse, PSI2 and IPT2 domains (domains 4-5); The crystallised PlxnA2_(4-5) (PDB 5L74) was made in HEK293S cells; also called wild-type PlxnA2_(4-5); not shown: biotinylation tag (BirA), C-terminal, kept
With B3 the Kd [4] was 20.9 ± 0.38 µM.
